The text below walks through data of patent US20250282876A1, “STABLE Fc FRAGMENTS, CONJUGATES, COMPOSITIONS, AND METHODS OF USE” (PURDUE RESEARCH FOUNDATION, priority 2022, published 2025).

The target of experiment [1] is T1, FcγRIIb (Homo sapiens, UniProt P31994).
T1 sequence (P31994 43-310): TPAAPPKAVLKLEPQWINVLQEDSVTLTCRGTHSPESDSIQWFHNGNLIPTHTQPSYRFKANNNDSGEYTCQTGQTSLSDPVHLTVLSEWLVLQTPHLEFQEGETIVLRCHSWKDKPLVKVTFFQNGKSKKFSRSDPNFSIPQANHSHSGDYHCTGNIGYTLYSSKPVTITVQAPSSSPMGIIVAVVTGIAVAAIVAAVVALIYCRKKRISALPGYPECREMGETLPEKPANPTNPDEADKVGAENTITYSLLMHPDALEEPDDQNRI
In words: Binding of mFc mutant compared with wild-type (Example 1 statement). The note with it: as compared to WT.

Experiment [2] deals with antibody-dependent cell-mediated cytotoxicity (ADCC). Description: ADCC activity of mFc mutant (Example 1 statement). The experiment is classed as cell-based. The note with it: compared to WT.
For experiment [3], the target named is T2, CD32b (Homo sapiens, UniProt P31994).
T2 construct: purchased Beijing Sino Biological Inc
T2 sequence (P31994 43-310): T1 sequence (P31994 43-310)
Description: Bio Layer Interferometry (Octet) binding of monomeric Fc variants to FcγR. Conditions: huFcγR variant CD32b; 1:1 Langmuir fit; * denotes weak binding/inaccurate KD.

In experiment [4] the test system is antibody-dependent cellular phagocytosis (ADCP). Description: ADCP activity of mFc mutant (Example 1 statement). The experiment is classed as cell-based. Conditions: compared to WT.
The target of experiment [5] is FcγRIIIa (Homo sapiens, UniProt P08637). Description: Binding affinity of mFc mutant compared with wild-type (Example 1 statement). Conditions: comparative with wild-type (WT).
Chain of FcγRIIIa (P08637 17-254): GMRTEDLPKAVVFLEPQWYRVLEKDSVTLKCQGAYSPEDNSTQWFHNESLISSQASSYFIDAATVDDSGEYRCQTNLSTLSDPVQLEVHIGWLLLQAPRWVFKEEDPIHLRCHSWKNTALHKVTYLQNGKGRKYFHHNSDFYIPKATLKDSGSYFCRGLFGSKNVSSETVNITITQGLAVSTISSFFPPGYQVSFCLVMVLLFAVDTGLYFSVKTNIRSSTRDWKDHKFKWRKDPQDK
Experiment [6] deals with T3, CD16a (176F) (Homo sapiens, UniProt P08637).
T3 construct: purchased Beijing Sino Biological Inc
T3 sequence (P08637 17-254): as above
Description: Bio Layer Interferometry (Octet) binding of monomeric Fc variants to FcγR. Conditions: huFcγR variant CD16a(176F); 1:1 Langmuir fit; * denotes weak binding/inaccurate KD.

A word on the Kd: it is the concentration at which binding is half-saturated. A lower Kd goes with higher affinity.

Consider “Mono-Fc DLE: modified Fc region of human IgG1 with DLE mutation (Ser239Asp/Ala330Leu/Ile332Glu)”, for which the “binding to inhibitory FcγRIIb” value in experiment [1] is recorded as “low binding”. In addition, the ADCC activity result in experiment [2] is “enhanced”. Moreover, binding in experiment [3] was characterised by a dissociation constant (Kd) of 1.34 nM. The ADCP activity result in experiment [4] is “enhanced”. For the same substance, the “binding affinity to FcγRIIIa” value in experiment [5] was “increased FcγRIIIa affinity”.

Turning to “Mono-Fc WT: wild-type Fc region of human IgG1 (aa 216-447), expressed as about 26 kDa monomeric form [reference compound]”, the values for the Kd in experiment [6] and in experiment [3] were under 1 pM and 3760 nM, respectively.
